Measurements reported in US20180148497A1 (DUKE UNIVERSITY, published 2018).

B1: HIV-1 × CD3 Bi-Specific Diabody (A32 × CD3) (bispecific antibody)
chain 1: QSALTQPPSASGSPGQSVTISCTGTSSDVGGYNYVSWYQHHPGKAPKLIISEVNNRPSGVPDRFSGSKSGNTASLTVSGLQAEDEAEYYCSSYTDIHNFVFGGGTKLTVLGGGSGGGGEVQLVESGGGLVQPGGSLRLSCAASGFTFSTYAMNWVRQAPGKGLEWVGRIRSKYNNYATYYADSVKGRFTISRDDSKNSLYLQMNSLKTEDTAVYYCVRHGNFGNSYVSWFAYWGQGTLVTVSSGGCGGGEVAALEKEVAALEKEVAALEKEVAALEK
chain 2: QAVVTQEPSLTVSPGGTVTLTCRSSTGAVTTSNYANWVQQKPGQAPRGLIGGTNKRAPWTPARFSGSLLGGKAALTITGAQAEDEADYYCALWYSNLWVFGGGTKLTVLGGGGSGGGGQVQLQESGPGLVKPSQTLSLSCTVSGGSSSSGAHYWSWIRQYPGKGLEWIGYIHYSGNTYYNPSLKSRITISQHTSENQFSLKLNSVTVADTAVYYCARGTRLRTLRNAFDIWGQGTLVTVSSGGCGGGKVAALKEKVAALKEKVAALKEKVAALKE
notes: Two-chain DART without Fc, with an interchain disulfide and E-coil/K-coil domains; also called A32×CD3 DART
B2: HIV-1 × CD3 Bi-Specific Diabody (7B2 × CD3) (bispecific antibody)
chain 1: DIVMTQSPDSLAVSPGERATIHCKSSQTLLYSSNNRHSIAWYQQRPGQPPKLLLYWASMRLSGVPDRFSGSGSGTDFTLTINNLQAEDVAIYYCHQYSSHPPTFGHGTRVEIKGGGSGGGGEVQLVESGGGLVQPGGSLRLSCAASGFTFSTYAMNWVRQAPGKGLEWVGRIRSKYNNYATYYADSVKGRFTISRDDSKNSLYLQMNSLKTEDTAVYYCVRHGNFGNSYVSWFAYWGQGTLVTVSSGGCGGGEVAALEKEVAALEKEVAALEKEVAALEK
chain 2: QAVVTQEPSLTVSPGGTVTLTCRSSTGAVTTSNYANWVQQKPGQAPRGLIGGTNKRAPWTPARFSGSLLGGKAALTITGAQAEDEADYYCALWYSNLWVFGGGTKLTVLGGGGSGGGGQVQLVQSGGGVFKPGGSLRLSCEASGFTFTEYYMTWVRQAPGKGLEWLAYISKNGEYSKYSPSSNGRFTISRDNAKNSVFLQLDRLSADDTAVYYCARADGLTYFSELLQYIFDLWGQGARVTVSSGGCGGGKVAALKEKVAALKEKVAALKEKVAALKE
notes: Two-chain DART without Fc; also called 7B2×CD3 DART
B3: HIV-1 × Fluorescein Bi-Specific Diabody (7B2 × 4420) (bispecific antibody)
chain 1: DIVMTQSPDSLAVSPGERATIHCKSSQTLLYSSNNRHSIAWYQQRPGQPPKLLLYWASMRLSGVPDRFSGSGSGTDFTLTINNLQAEDVAIYYCHQYSSHPPTFGHGTRVEIKGGGSGGGGEVKLDETGGGLVQPGRPMKLSCVASGFTFSDYWMNWVRQSPEKGLEWVAQIRNKPYNYETYYSDSVKGRFTISRDDSKSSVYLQMNNLRVEDMGIYYCTGSYYGMDYWGQGTSVTVSSGGCGGGEVAALEKEVAALEKEVAALEKEVAALEK
chain 2: DVVMTQTPFSLPVSLGDQASISCRSSQSLVHSNGNTYLRWYLQKPGQSPKVLIYKVSNRFSGVPDRFSGSGSGTDFTLKISRVEAEDLGVYFCSQSTHVPWTFGGGTKLEIKGGGSGGGGQVQLVQSGGGVFKPGGSLRLSCEASGFTFTEYYMTWVRQAPGKGLEWLAYISKNGEYSKYSPSSNGRFTISRDNAKNSVFLQLDRLSADDTAVYYCARADGLTYFSELLQYIFDLWGQGARVTVSSGGCGGGKVAALKEKVAALKEKVAALKEKVAALKE
B4: HIV-1 × Fluorescein Bi-Specific Diabody (A32 × 4420) (bispecific antibody)
chain 1: QSALTQPPSASGSPGQSVTISCTGTSSDVGGYNYVSWYQHHPGKAPKLIISEVNNRPSGVPDRFSGSKSGNTASLTVSGLQAEDEAEYYCSSYTDIHNFVFGGGTKLTVLGGGSGGGGEVKLDETGGGLVQPGRPMKLSCVASGFTFSDYWMNWVRQSPEKGLEWVAQIRNKPYNYETYYSDSVKGRFTISRDDSKSSVYLQMNNLRVEDMGIYYCTGSYYGMDYWGQGTSVTVSSGGCGGGEVAALEKEVAALEKEVAALEKEVAALEK
chain 2: DVVMTQTPFSLPVSLGDQASISCRSSQSLVHSNGNTYLRWYLQKPGQSPKVLIYKVSNRFSGVPDRFSGSGSGTDFTLKISRVEAEDLGVYFCSQSTHVPWTFGGGTKLEIKGGGSGGGGQVQLQESGPGLVKPSQTLSLSCTVSGGSSSSGAHYWSWIRQYPGKGLEWIGYIHYSGNTYYNPSLKSRITISQHTSENQFSLKLNSVTVADTAVYYCARGTRLRTLRNAFDIWGQGTLVTVSSGGCGGGKVAALKEKVAALKEKVAALKEKVAALKE

Tests used:
[1] = target: T1, M.ConS gp140 CFI (HIV-1 group M consensus Env protein); experiment: SPR (BIAcore 3000), M.ConS gp140 over DART captured on immobilized CD3ε/δ, 1:1 Langmuir global fit
T1 construct: also called M.ConS gp140ΔCFI

[2] = target: T2, HIV-1 Env, HXBc2, subtype B, expressed on Jurkat 522-F/Y cells (HIV-1 (HXBc2, subtype B), UniProt P04578 33-856); experiment: cell-based or functional assay
[3] = target: T3, human CD3 on cells (primary human T cells; Jurkat 522-F/Y cells) (human, UniProt P07766 23-207); experiment: flow cytometry on primary human T cells (Env- CD3+), DART at 4 µg/mL, biotinylated anti-EK antibody and streptavidin-PE [panel D. Human T Cells]
T3 construct: whole, on cells; The other chains of the CD3 complex were also present on the cells; also called CD3ε; human CD3+ T cells

[4] = target: T1, M.ConS gp140 CFI (HIV-1 group M …); experiment: SPR (BIAcore 3000), Env protein over DART captured on immobilized CD3
[5] = target: JR-FL gp140 CF (HIV-1 Env protein) (HIV-1 (JR-FL)); experiment: SPR (BIAcore 3000), JR-FL gp140 over DART captured on immobilized CD3ε/δ, 1:1 Langmuir global fit
[6] = target: JR-FL gp140 CF (HIV-1 Env protein) (HIV-1 (JR-FL)); experiment: SPR (BIAcore 3000), Env protein over DART captured on immobilized CD3
[7] = target: T3, human CD3 on cells (primary human T …); experiment: flow cytometry on primary human T cells (Env- CD3+), biotinylated anti-EK antibody and streptavidin-PE [panel D. Human T Cells]
[8] = target: T2, HIV-1 Env, HXBc2, subtype B, expressed …; experiment: flow cytometry on Jurkat-522 F/Y cells (Env+ CD3+), biotinylated anti-EK antibody and streptavidin-PE [panel F. Jurkat-522 F/Y Cells]

T3 sequence (P07766 23-207): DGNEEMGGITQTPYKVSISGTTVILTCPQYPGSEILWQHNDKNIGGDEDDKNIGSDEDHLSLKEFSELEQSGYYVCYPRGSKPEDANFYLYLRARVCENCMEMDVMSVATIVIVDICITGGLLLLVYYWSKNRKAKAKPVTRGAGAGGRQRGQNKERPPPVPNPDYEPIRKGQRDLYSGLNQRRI

Binder	EC50 of redirected T-cell killing of Env+ Jurkat 522-F/Y GF cells, E:T 10:1, 48 hours, LUM assay [2] [ng/mL]	EC50 of redirected T-cell killing of Env+ Jurkat 522-F/Y cells, E:T 10:1, 48 hours, LDH release assay [2] [ng/mL]	binding result [3]	binding result [7]	other results
B1	0.172	0.23	binds	–	koff [1]: 0.00081 s⁻¹; kon [1]: 17000 M⁻¹ s⁻¹; Kd [4]: 47.7 nM
B2	0.147	0.16	binds	–	koff [5]: 0.00031 s⁻¹; kon [5]: 20000 M⁻¹ s⁻¹; Kd [6]: 15.1 nM
B3	–	–	–	no binding (tested: 4 µg/mL (single concentration))	binding result [8]: no binding (tested: 4 µg/mL (single concentration))
B4	–	–	–	no binding (tested: 4 µg/mL (single concentration))	–
